For one experiment, the target named is Vav2 (UniProt P52735). As to the kind of experiment: biotin-peptide streptavidin pull-down from lysate. The note with it: reference: non-phosphorylated peptide; sites Y14.
The target of experiment [1] is Phospholipase Cγ1 (PLCγ1) (UniProt P19174). As to the kind of experiment: biotin-peptide streptavidin pull-down from lysate. As to conditions: reference: non-phosphorylated peptide; sites Y14.
Another experiment deals with T1, RasA1 (Homo sapiens).
T1 chain: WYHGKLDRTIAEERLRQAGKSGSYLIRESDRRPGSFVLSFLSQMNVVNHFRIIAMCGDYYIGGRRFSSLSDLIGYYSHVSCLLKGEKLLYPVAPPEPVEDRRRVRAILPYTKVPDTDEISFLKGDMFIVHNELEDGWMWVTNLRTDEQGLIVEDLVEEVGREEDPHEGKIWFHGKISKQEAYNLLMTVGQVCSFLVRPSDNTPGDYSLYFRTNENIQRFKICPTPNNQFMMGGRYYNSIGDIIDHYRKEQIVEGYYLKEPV

Experiment [2] addresses T2, SH2 domain of Abl1 (recombinant, on protein microarray) (human, UniProt P00519 127-217).
T2 chain: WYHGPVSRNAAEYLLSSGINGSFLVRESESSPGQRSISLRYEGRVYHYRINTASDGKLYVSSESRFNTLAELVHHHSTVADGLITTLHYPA

Experiment [3] concerns the target T3, SH2 domain of Grb10 (recombinant, on protein microarray) (human, UniProt Q13322 493-574).
T3 chain: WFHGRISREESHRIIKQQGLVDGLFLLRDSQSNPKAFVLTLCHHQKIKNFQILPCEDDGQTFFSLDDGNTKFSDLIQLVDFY

Experiment [4] deals with T4, SH2 domain of SH2D3C (recombinant, on protein microarray) (human, UniProt Q8N5H7 220-319).
T4 chain: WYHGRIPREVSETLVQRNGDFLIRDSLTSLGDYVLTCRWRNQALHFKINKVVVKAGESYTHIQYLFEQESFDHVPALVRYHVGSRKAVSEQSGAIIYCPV

For experiment [5], the target named is T5, SH2 domain of Abl2 (recombinant, on protein microarray) (human, UniProt P42684 173-263).
T5 chain: T2 chain with N9S, G18L, R35L, A53T, S54A, L58V, S61T, S62A, N67S, I84V

Experiment [6] has as its target T6, SH2 domain of Abl2 (recombinant, on protein microarray) (human, UniProt P42684 173-263).
T6 construct: Abl2, human, SH2 domain
T6 sequence (looked up): T2 chain with N9S, G18L, R35L, A53T, S54A, L58V, S61T, S62A, N67S, I84V
Kind of experiment: peptide or protein array; recombinant human SH2 and PTB domains spotted on protein microarrays; probed in duplicate with eight concentrations of fluorescently labeled peptide, 10 nM to 5 µM; fluorescence fit to a saturation binding equation. The note with it: both partners purified.

The target of experiment [7] is T7, SH2 domain of the RhoA GEF Vav2 (recombinant, on protein microarray) (human, UniProt P52735 673-767).
T7 construct: Vav2, human, SH2 domain
T7 sequence (looked up): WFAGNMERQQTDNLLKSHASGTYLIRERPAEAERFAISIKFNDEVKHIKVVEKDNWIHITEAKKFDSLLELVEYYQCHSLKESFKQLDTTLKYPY
The experiment is described as above. As to conditions: both partners purified.

Experiment [8] has as its target T8, SH2 domain of Grb10 (recombinant, on protein microarray) (human, UniProt Q13322 493-574).
T8 construct: Grb10, human, SH2 domain
T8 sequence (looked up): T3 chain
The description is as above. The note with it: both partners purified.

The target in experiment [9] is T9, SH2 domain of Abl1 (recombinant, on protein microarray) (human, UniProt P00519 127-217).
T9 construct: Abl1, human, SH2 domain
T9 sequence (looked up): T2 chain
The description is as above. The note with it: both partners purified.

The target of experiment [10] is T10, SH2 domain of SH2D3C (recombinant, on protein microarray) (human, UniProt Q8N5H7 220-319).
T10 construct: SH2D3C, human, SH2 domain
T10 sequence (looked up): T4 chain
The experiment is described as above. The note with it: both partners purified.

Experiment [11] concerns the target T11, SH2 domain of Phospholipase Cγ1 (recombinant, on protein microarray) (human).
T11 chain: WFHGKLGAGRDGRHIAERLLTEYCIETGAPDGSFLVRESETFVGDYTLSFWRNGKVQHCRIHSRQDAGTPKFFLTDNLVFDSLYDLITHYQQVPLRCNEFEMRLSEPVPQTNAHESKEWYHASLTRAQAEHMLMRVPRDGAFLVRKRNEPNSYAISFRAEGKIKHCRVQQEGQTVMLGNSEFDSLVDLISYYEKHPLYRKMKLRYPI
The experiment is described as above. The note with it: both partners purified.

Experiment [12] concerns the target T12, SH2 domain of Phospholipase Cγ1 (recombinant, on protein microarray) (human).
T12 chain: T11 chain
Kind of experiment: tandem NC SH2 domains.

The Kd is the constant that tells how readily two partners part at equilibrium.

Residue numbers refer to the chain shown, from its start. Where two headings read alike, the source gives them in different places. Where no end group is shown, it is not given here. [ ]: non-standard residue; d: D form. pY = N[C@@H](Cc1ccc(OP(=O)(O)O)cc1)C(=O)O

For the molecule “caveolin-1 (Cav1) 7-21 (from UniProt Q03135) pTyr14 peptide”, the “binding against the reference” value (with Vav2; in [1]) was “stronger” in each case.
Consider KYVDSEGHLYTVPIREQG (also: fluorescent label (position not given here)) [fluorescently labeled non-phosphorylated Cav1 peptide (residues 5-22 of Cav1)], for which binding with RasA1 was characterised by a dissociation constant (Kd) of 1390 nM.

B1: fluorescently labeled Tyr14-Cav1 phosphopeptide (residues 5-22 of Cav1, phosphorylated on Tyr14) (peptide, UniProt Q03135 5-22, looked up)
peptide: KYVDSEGHL[pY]TVPIREQG
modifications: also: fluorescent label (position not given here)
notes: caveolin-1 (Cav1), human, residues 5-22; also called Tyr14-Cav1 phosphopeptide (18 amino acids); source: synthetic peptide, purified to >95% by preparative reverse phase HPLC
In the case of B1, the Kd in experiment [2] is 1640 nM; in experiment [3], 1370 nM; in experiment [4], 874 nM; in experiment [5], 58 nM; in experiment [6] it was below 2000 nM; in [7] it was 222 nM. Besides, the Kd in [8] was below 2000 nM; in experiment [9], below 2000 nM; in [10], below 2000 nM; in experiment [11], below 2000 nM; in experiment [12] it was 482 nM.

(Values after paper PMC2927421, “Tyrosine-Phosphorylated Caveolin-1 Blocks Bacterial Uptake by Inducing Vav2-RhoA-Mediated Cytoskeletal Rearrangements” (PLoS Biology, 2010).)
